This data set deals with the molecule itself. Briefly: cryo-EM structure.

B1: ABC transporter MsbA (His-tagged, E. coli) (natural protein)
chain: MHNDKDLSTWQTFRRLWPTIAPFKAGLIVAGVALILNAASDTFMLSLLKPLLDDGFGKTDRSVLVWMPLVVIGLMILRGITSYVSSYCISWVSGKVVMTMRRRLFGHMMGMPVSFFDKQSTGTLLSRITYDSEQVASSSSGALITVVREGASIIGLFIMMFYYSWQLSIILIVLAPIVSIAIRVVSKRFRNISKNMQNTMGQVTTSAEQMLKGHKEVLIFGGQEVETKRFDKVSNRMRLQGMKMVSASSISDPIIQLIASLALAFVLYAASFPSVMDSLTAGTITVVFSSMIALMRPLKSLTNVNAQFQRGMAACQTLFTILDSEQEKDEGKRVIERATGDVEFRNVTFTYPGRDVPALRNINLKIPAGKTVALVGRSGSGKSTIASLITRFYDIDEGEILMDGHDLREYTLASLRNQVALVSQNVHLFNDTVANNIAYARTEQYSREQIEEAARMAYAMDFINKMDNGLDTVIGENGVLLSGGQRQRIAIARALLRDSPILILDEATSALDTESERAIQAALDELQKNRTSLVIAHRLSTIEKADEIVVVEDGVIVERGTHNDLLEHRGVYAQLHKMQFGQ
With B1, the binding result is “binds”.
